The text below walks through data of US20040132121A1, “Method of identifying antibacterial compounds” (priority 2000, published 2004).

Sequence of LexA-MutS (802-818) fusion (plasmid pLexAMutS(802-818)) (P0A7C2 other isoform, or with tags, fused parts or gaps): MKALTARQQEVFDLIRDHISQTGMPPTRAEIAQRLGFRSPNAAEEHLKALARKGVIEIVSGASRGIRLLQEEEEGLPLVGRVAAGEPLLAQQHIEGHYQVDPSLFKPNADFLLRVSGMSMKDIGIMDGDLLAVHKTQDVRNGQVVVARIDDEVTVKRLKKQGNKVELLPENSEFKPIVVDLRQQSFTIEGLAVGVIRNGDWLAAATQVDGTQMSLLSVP
Sequence of LexA-PolB (779-783) fusion (plasmid pLexAPolB(779-783)) (P0A7C2 other isoform, or with tags, fused parts or gaps limits assumed): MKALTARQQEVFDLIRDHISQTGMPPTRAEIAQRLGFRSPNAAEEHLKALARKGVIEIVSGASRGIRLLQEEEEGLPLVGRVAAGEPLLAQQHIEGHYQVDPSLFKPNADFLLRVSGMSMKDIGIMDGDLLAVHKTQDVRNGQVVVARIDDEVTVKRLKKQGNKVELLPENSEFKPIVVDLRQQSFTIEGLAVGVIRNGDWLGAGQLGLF
Sequence of LexA-DinB (307-317) fusion (plasmid pLexADinB (307-317)) (P0A7C2 other isoform, or with tags, fused parts or gaps): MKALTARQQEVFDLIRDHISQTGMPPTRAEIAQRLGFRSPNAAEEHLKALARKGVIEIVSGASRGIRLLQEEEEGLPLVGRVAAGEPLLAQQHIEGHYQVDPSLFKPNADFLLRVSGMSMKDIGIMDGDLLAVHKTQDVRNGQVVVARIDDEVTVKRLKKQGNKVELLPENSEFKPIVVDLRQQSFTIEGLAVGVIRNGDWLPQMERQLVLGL

The target of one assay is E. coli β fused to the B42 transcriptional activation domain (plasmid pB42ADβ) (Escherichia coli) (UniProt P0A988).
For the substance “LexA-UmuC (351-365) fusion (plasmid pLexAUmuC(351-365)) (from UniProt P0A7C2 1-202)”, the β-gal activity Miller units (yeast two-hybrid; interact with β: +) was found to be 94.8 Miller units. The substance “LexA-DnaE (542-991) fusion (plasmid pLexADnaE (542-991)) (from UniProt P0A7C2 1-202; P10443 542-991)” came in with a β-gal activity Miller units (yeast two-hybrid; interact with β: +) of 60.1 Miller units. Regarding “LexA-DinB (307-317) fusion (plasmid pLexADinB (307-317)) (from UniProt P0A7C2 1-202)”, the β-gal activity Miller units (yeast two-hybrid; interact with β: +) worked out at 75.1 Miller units. For “LexA-DnaE (908-931) fusion (plasmid pLexADnaE (908-931)) (from UniProt P0A7C2 1-202; P10443 908-931)”, the β-gal activity Miller units (yeast two-hybrid; interact with β: +) came to 32.3 Miller units. In turn, “LexA-MutS (802-818) fusion (plasmid pLexAMutS(802-818)) (from UniProt P0A7C2 1-202)” came in with a β-gal activity Miller units (yeast two-hybrid; interact with β: +) of 43.8 Miller units. Regarding “LexA-DnaE (542-735) fusion (from UniProt P0A7C2 1-202; P10443 542-735)”, the β-gal activity Miller units (yeast two-hybrid; interact with β: -) came to 1.1 Miller units.

In the case of “LexA-DnaE (896-919) fusion (plasmid pLexADnaE (896-919)) (from UniProt P0A7C2 1-202; P10443 896-919)”, the β-gal activity Miller units (yeast two-hybrid; interact with β: -) is 0.1 Miller units. “LexA-DnaE (736-991) fusion (from UniProt P0A7C2 1-202; P10443 736-991)” showed a β-gal activity Miller units (yeast two-hybrid; interact with β: +) of 135 Miller units. As to pLexA, the β-gal activity Miller units (yeast two-hybrid; interact with β: -) stood at 1.5 Miller units. Turning to “LexA-PolB (779-783) fusion (plasmid pLexAPolB(779-783)) (from UniProt P0A7C2 1-202)”, the β-gal activity Miller units (yeast two-hybrid; interact with β: +) was determined as 69.6 Miller units.

For the next assay, the target named is Escherichia coli β subunit of DNA Polymerase III (β protein) (Escherichia coli) (UniProt P0A988).
As for pep18 Ac-DLF-NH2 (peptide), the IC50 was found to be 135 µM.
